How the values were obtained:
[1] = molecular target: Trastuzumab; assay: cell-based or functional assay
[2] = molecular target: canine IgG
[3] = molecular target: human IgG
[4] = molecular target: monkey IgG
[5] = molecular target: rabbit IgG
[6] = molecular target: IgG1 in human serum
[7] = molecular target: IgG1 in mouse serum
[8] = molecular target: human IVIg (intravenous immunoglobulin)
[9] = molecular target: mouse IgG
[10] = molecular target: pig serum IgG
[11] = molecular target: rat IgG

Molecule	cleavage of human IgG1, SDS-PAGE (fold of wild-type IdeE) [1]	Fold of activity relative to wild-type (cleavage of human IgG1, ELISA) [1]	further results
IdeE C-terminal truncated mutant WT_delC5 (enzyme)	> 2		
IdeE C-terminal truncated mutant WT_delC10 (enzyme)	> 2		
IdeE mutant A10K (enzyme)		1.99 fold	
IdeE mutant A10R (enzyme)		2.2 fold	
IdeE mutant A59I (enzyme)		2.31 fold	
IdeE mutant A59L (enzyme)	> 2	2.41 fold	
IdeE mutant A59V (enzyme)	> 2	2.68 fold	
IdeE mutant E97D (enzyme)	> 2	2 fold	
IdeE mutant R280H (enzyme)	> 2	2.3 fold	
IdeE mutant R280K (enzyme)		2.2 fold	
IdeE mutant T8D (enzyme)	> 2	2.21 fold	
IdeE mutant T8E (enzyme)		2.09 fold	
IdeE mutant T8W (enzyme)	> 2	2.58 fold	
IdeE mutant T8Y (enzyme)		2.3 fold	
IdeE mutant T24A (enzyme)	> 2	2.23 fold	
IdeE mutant T24G (enzyme)		2.09 fold	
IdeE mutant T24S (enzyme)		2.18 fold	
IdeE mutant IDEEV2 (protein) ITSVWTKGVTPLTPEQFRYNNEDVIHAPYLAHQGWYDITKAFDGKDNLLCGAATAGNMLHWWFDQNKTEIEAYLSKHPDKQKIIFNNQELFDLKAAIDTKDSQTNSQLFNYFRDKAFPNLSARQLGVMPDLVLDMFINGYYLNVFKTQSTDVNRPYQDKDKRGGIFDAVFTRGDQTTLLTARHDLKNKGLNDISTIIKQELTEGRALALSHTYANVSISHVINLWGADFNAEGNLEAIYVTDSDANASIGMKKYFVGINAHGHVAISAKKIEGENIGAQVLGLFTLSSGKDIWQKLS			digestion of purified IgG, non-reduction SDS-PAGE (1:200) [2]: IDEEV2 can in species-specificity effectively digest IgG in rabbits, dogs, monkeys, and humans; digestion of purified IgG, non-reduction SDS-PAGE (1:200) [3]: IDEEV2 can in species-specificity effectively digest IgG in rabbits, dogs, monkeys, and humans; digestion of purified IgG, non-reduction SDS-PAGE (1:200) [4]: IDEEV2 can in species-specificity effectively digest IgG in rabbits, dogs, monkeys, and humans; digestion of purified IgG, non-reduction SDS-PAGE (1:200) [5]: IDEEV2 can in species-specificity effectively digest IgG in rabbits, dogs, monkeys, and humans
IdeE combined mutant E97D_del18 (protein) ITSVWTKGVTPLTPEQFRYNNEDVIHAPYLAHQGWYDITKAFDGKDNLLCGAATAGNMLHWWFDQNKTEIEAYLSKHPDKQKIIFNNQELFDLKAAIDTKDSQTNSQLFNYFRDKAFPNLSARQLGVMPDLVLDMFINGYYLNVFKTQSTDVNRPYQDKDKRGGIFDAVFTRGDQTTLLTARHDLKNKGLNDISTIIKQELTEGRALALSHTYANVSISHVINLWGADFNAEGNLEAIYVTDSDANASIGMKKYFVGINAHRHVAISAKKIEGENIGAQVLGLFTLSSGKDIWQKLSHHHHHH			cleavage in human serum, SDS-PAGE [6]: E97D_del18 cleaves in human serum to produce an apparent 25 kD Fc fragment; cleavage in mouse serum, SDS-PAGE [7]: little or no cleavage activity against IgG1 in mouse serum; cleavage of serum IgG, SDS-PAGE [2]: can effectively cleave rabbit, canine, and monkey serum IgG; cleavage, SDS-PAGE [2]: E97D_del18 could effectively cleave canine IgG, rabbit IgG and mouse IgG2a; cleavage of human IVIg in mouse serum and plasma, SDS-PAGE [8]: E97D_del18 is effective in cleaving human IVIg in both mouse serum and plasma; cleavage of serum IgG, SDS-PAGE [4]: can effectively cleave rabbit, canine, and monkey serum IgG; cleavage of serum IgG, SDS-PAGE [9]: almost no cleavage effect for rat and mouse serum IgG; cleavage of serum IgG, SDS-PAGE [10]: poor cleavage effect for pig serum IgG; cleavage of serum IgG, SDS-PAGE [5]: can effectively cleave rabbit, canine, and monkey serum IgG, with the best cleavage effect for rabbit serum IgG; cleavage, SDS-PAGE [5]: E97D_del18 could effectively cleave canine IgG, rabbit IgG and mouse IgG2a; cleavage of serum IgG, SDS-PAGE [11]: almost no cleavage effect for rat and mouse serum IgG

— patent publication US20250257346A1
